Source: US20040265963

System: T1, Tkip (tyrosine kinase inhibitor peptide), WLVFFVIFYFFR
T1 sequence: WLVFFVIFYFFR

recombinant human Src was tested, and the “c-src tyrosine phosphorylation of a synthetic substrate peptide, in vitro kinase assay” value was “Tkip at 50 µM failed to inhibit c-src phosphorylation of a protein substrate”.
